Test results taken from article PMC2114230.

Columns and labels:
[1] = biological target: actin filaments of rabbit skeletal muscle actin (rabbit) (UniProt P68135); test: co-sedimentation
[2] = biological target: microtubules of rat brain tubulin (rat) (UniProt P68370); test: co-sedimentation

Substance: 255-kD protein of squid giant axon (natural protein)
- percent of total 255-kD protein sedimented [1]: 62%

Substance: axolinin (260-kD protein) of squid giant axon (natural protein)
- percent of total axolinin sedimented [2]: 70%
